Assay: yeast display, Sf9 membrane polyspecificity reagent, FACS + sequencing; frameworks hold sequencing errors
Procedure, shortened: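 Nanobodies from a synthetic yeast display library (Saccharomyces cerevisiae BJ5465), induced 36–48 hours with galactose, were stained 1 hour at 4 °C with 10% biotinylated, detergent-solubilized Sf9 membrane reagent, enriched on streptavidin microbeads, then FACS-sorted. Anti-HA (expression) and streptavidin (reagent binding) fluorescence set low and high (top ~1%) gates. Polyreactivity labels come from the gate of origin. Genes were colony-PCR amplified, MiSeq 2 × 250 sequenced and filtered by CDR length.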
In the case of “QDQLVESGGGLVQAGGTLSLSSAASVIIFYDNAMGWSRQAPGKEREYVAAISRSGTTTYYADSVKGRFTISRDNAKNTVYLQMNSLKPEDTAVYYCAARWVYYHAIFEYWGQGTQVTVSS”, the “polyreactivity (PSR sort gate)” value is reported as “high polyreactivity”.
With “QDQLVESGGGLVQAGVSLRISCAASGYIFGFYARGWYRQAPGIERELVAAISKSGGNTYYADSVKGRFTISRDNANNTVSLQMNSLKPEDTAVYYCAADSYRYKYNYWGQGTQVTGSS” the “polyreactivity (PSR sort gate)” value was “high polyreactivity”.
With “QDQLVESGGGLVQARGSLRLSCAASGSIYSRNALGWYRQAPGKERELVAAITYRGGNTYYADSVKGRFTISRDNANNNLYLQMNSLKPEDTAVYYCAADTYGWLYAFEYWGQGTQVTVSS” the “polyreactivity (PSR sort gate)” value was “low polyreactivity”.
For “QDQLVESGGGLVQEGGSLRLSCAASGRIFYFNARGWYRQAPGKERELVADISSGGRTNYADSVKGRFTFSRDNAKNSVYVQMNSEKPEDTAVYYCNSEPYTSSGGYRGYDFDYWGQGSQVTVSS”, the “polyreactivity (PSR sort gate)” value was “low polyreactivity”.
In the case of “QDQLVESGGGLVQEGGSLRLSCAASGRTFKHYVMGWYRQAPGKERELVATICGGGGTYYADSVKGRFTISRDNAKNSVYLQMISLKPEDTAVYYCAARYPRGSRTWSFDSNKQRDYWGQGTQVTVSS”, the “polyreactivity (PSR sort gate)” value is reported as “low polyreactivity”.
With “QDQLVESGGGLVQGGGSLRLSCAASGRIFSPYAMGWYRQAPGKEREVVAAITSASSTYYADSVKGRFTISRDNAKNTVYLQMNSLKPEDTAVNYCAASYWRYGSAFDYWGHGTQVTVSS” the “polyreactivity (PSR sort gate)” value was “high polyreactivity”.
In the case of “QDQLVESGGGLVQSGGSLRLSCAASGSTFYYYAMGWYRQAPGKERELVAAITSSTGRTYYADSVKGRFTISRDNAKYTVYLQMNSLKPEDTAVYYCITRRGSLSGLYVYSIQGYDYWGQGTQVTVSS”, the “polyreactivity (PSR sort gate)” value is reported as “low polyreactivity”.
For “QDQLVESGGGTVQAGGSLRISCAASGSILRSNAMGWYRQAPAKERELVAAITQSGGSTFYADSVKGRFTITRDNAKNTVYLQMNSLKPEDTAVYYWGQGTQVTVSS”, the “polyreactivity (PSR sort gate)” value was “low polyreactivity”.
For “QDQLVESGGGVVQAGGSLRLSCAASGRISIWYAMGWYRQAPGKERELVARISTSSGRTYYADSVKGRFTISRDNAKNTVYLQMNSLKPEDTAVYYCNAAGYRIYFSTRYDYWGQGTQVTVSS”, the “polyreactivity (PSR sort gate)” value was “high polyreactivity”.
For “QDQLVESGGVLVQAGGSLRLSCAASGRIFVYNAMGWYRQAPGKERELVATIDYSGGSTYYADSVKGRFTNSRDYAKNTVYLQINSLKPEDPAVYYCNADWSVYAYDSWGQGTQVTVSS”, the “polyreactivity (PSR sort gate)” value was “low polyreactivity”.
With “QDQLVESGPGLVQAGGSLRLSCAPSGRIFTVYAMGWYRQAPGKERELVAAIDWSDGSTYYADSVKGRFTISRDNAKNTVYLHMNSLKPEATAVYYCAAETYWVVEYDYWGQGTQVTVSS” the “polyreactivity (PSR sort gate)” value was “high polyreactivity”.
With “QDQLVESGRGLVQAGGSLRLSCAASASIFTKYTMVWYRQAPGKERELVAAITLRGTSTYYADSVKGRFTISRDNAKKTVYLQKNSLKPEDTAVYYCNILYSWVVAYDYWGQGTQVTLSS” the “polyreactivity (PSR sort gate)” value was “high polyreactivity”.
With “QDQLVESGRGLVQAGGSLRLSCAASGSTFSYYAIGWYRQAPGKERELVAAISRRGGSTYYADSVKGRFTISRDNAKNSVYLQMNSLKPEDTAVYYCNRVTYTGYDSWGQGTQVTVSS” the “polyreactivity (PSR sort gate)” value was “high polyreactivity”.
In the case of “QDQLVESGVGIVQAGRSLRLSCAASGFTFSGYAMGWDRQAPGKERELVAAINWRGDSTYYADSVKGRFTISRDNAKNTVYLQMNSLKPEDTAVYYCNVVLGPQRYSTDYGYWGQGTQVTVSS”, the “polyreactivity (PSR sort gate)” value is reported as “high polyreactivity”.
For “QDQLVESGVGLVQAGGSHRLSSAASGSTFRRNTMGWYRQAPGKERELVAAISNGGRTYYADSVKGRFTISRDNAKNTVYLQMNRLKPEDTAVYYCNKVRSPWYDSWGQGTQVTVSS”, the “polyreactivity (PSR sort gate)” value was “high polyreactivity”.
For “QDQLVESGVGLVQAGGSLRLSCAASGRTFYYNTMGWYRPAPGKETEFVATITSTHDTNYADSVKGRFTISRDNAKNSVYLQMNSLKPEDTAVYYCAKGYLNYGRDWDFDYWGHGTQVTVSS”, the “polyreactivity (PSR sort gate)” value was “low polyreactivity”.
In the case of “QDQLVESGVGLVQAGGSLRLSCAASGSIFHGNAMGWYRQAPGKERELVATISSGGSTYYADSVKGRFTISRDNAKNTVYLQMNSLKPEDTAVYYCAAERFWPYKSYYWGQGTQVTVSS”, the “polyreactivity (PSR sort gate)” value is reported as “low polyreactivity”.
For “QDQLVESGVGLVQEGGSLRLSCAASGSILKRYVMGWYRQAPGKERELVAAISSGSRTYYADSVKGRFTISRDNAKNTVYLQMNSLKPEDTAVYYCAADLTYKYHYDYWGQGTQVTVSS”, the “polyreactivity (PSR sort gate)” value was “high polyreactivity”.
For “QDQLVESRAGLVQAGGSLRLSCADTGNIFDFNAIGSYRQAPGKERELVAAISQRGTRTYYADSVKGRFTISRDNAKNTVYLQMKSLKPDYTAVYYCNRGGWRQYDSWGQGTQVTVSS”, the “polyreactivity (PSR sort gate)” value was “high polyreactivity”.
In the case of “QDQLVESVGGLDQAGGSLRLSCAASGLIFQSYVMGWYRQAPGKERELVAAISSSVGSTHYADSVKGRFTISRDNAKNTVYLQMNSLKPEDTAVYYCAVEDYYADSGVEYDYWGQGTQVTVSS”, the “polyreactivity (PSR sort gate)” value is reported as “low polyreactivity”.
In the case of “QDQLVESVGGLVQAGGSLRLSCAASGRTLVRYVMGWYRQAPGKERELVAAISARTGSTYYADSVKGRFTISRDNAKNTVYLQMNSLKPEDTAVYYCATKFSSYDTRVSYDYWGQGTQVTVSS”, the “polyreactivity (PSR sort gate)” value is reported as “low polyreactivity”.
With “QDQLVESVVGLVQAGGSLSLSCDSSARTFWYNAMGCYRQAPGKEREFVAAISSSGGTTYYADSVKGRFTISRDNAKNTVYLQMNSLKPEDTAVYYCAKRFSLLSTVRWGRYNYWGQGTQVTVSS” the “polyreactivity (PSR sort gate)” value was “high polyreactivity”.
With “QDQLVESWGGLVQAGGSLRLICASSGSNIGYNAMGWYRPAPVKERELVAAISYSGGSTYYADSVKGRFTISRDNAKNTVYFRMNSLKPEDTAVYYCNKYIRRYLIYGSWGQGSQVTVSS” the “polyreactivity (PSR sort gate)” value was “high polyreactivity”.
With “QDQLVESWGGLVQAVGSLRLSCAASGSTFEDYGMGWNRQAPGKERQFVAAIRYSGSSKYADSVKGRFTISRDNAKNTVFLLMKSLIPEDTAVYYCAKYGVRVGFGYSSEYFGQGTQVTVSS” the “polyreactivity (PSR sort gate)” value was “low polyreactivity”.
For “QDQLVETGVGLVQAGGSLLLSCAPSAITFRGYAMGWYRQAPGKEREYVAAITSGSSTYYADSVKGRFTISRDNAKNTVYLQMNSLKPEDTAVYYCAAERTKSFKLTRPGSMDYWGQGTQVTVSS”, the “polyreactivity (PSR sort gate)” value was “low polyreactivity”.
With “QDQLVQSGLGLVQAGGSLRLSCAASGITFYWYTIAWYRQATGKERELVAAISRRGGSTSYADSVKGRFTISRDNAKNTVYLQMNSLKPEDTAVYYCAKTPGWTDYDYWGQGTQVTVSS” the “polyreactivity (PSR sort gate)” value was “high polyreactivity”.
In the case of “QDQQVESGGGLVQAGGSLRLSSAASGRTFGTYALGWYRQARGNERELVAAITKSGGSTYYADSVKGRFIISRDNAKNTVYLQMNSLKPEDTAVYYCAAAVPRYRVYYWGQGTQVTVSS”, the “polyreactivity (PSR sort gate)” value is reported as “high polyreactivity”.
With “QDQRVESGGGLVQAGGSLRLSCAASGRIFSWYAMGWYRQAPGQERELVAAIDSGGRTNYADSVKGRFTISRDNAKNTVYLQMNSLKPEDTAVYYCAKEGYWPRYWERFDYWGQGTQVTVSS” the “polyreactivity (PSR sort gate)” value was “low polyreactivity”.
For “QDQRVESGGGLVQAGGSLRLSCAASGRTISVYAMGWYRQAPGKERELVAAIRTSGGITYYADSVKGRFTISRDNAKNTVYLQMNSLKPEDTAVYYCAAETFRHDSYTRYYYWGQGTQVTVSS”, the “polyreactivity (PSR sort gate)” value was “high polyreactivity”.
In the case of “QEQHVESAGGLVQAGGSLRLSCAASASIIYKYAMGWYRQAPGKERELVAAINSGGRTYYADSVKGRFTISRDNAKNTVYLQMNSLKPEDTAVYYCNAGTYYPGRYDYWGQGTQVTVSS”, the “polyreactivity (PSR sort gate)” value is reported as “high polyreactivity”.
With “QEQLQESGGGLGQAGGSLRLSCAASGSISSDVLMGWHRQAPGKERELVAAIGIGANTYYADSVKGRFTISRDNAKNTVYPQMNSLKPEDTAVYYCATGRYSGADNYWGQGTQVTVSS” the “polyreactivity (PSR sort gate)” value was “high polyreactivity”.
In the case of “QEQLQESGGGLVQAGGSLRLSCAASGNITLDTAMGWSRQAPRKEREFVASINDGGITNYADSVKGRFTICRDNAKNSVYLQMNSLKPEDTAVFYCAARWIWRGYDYWGQGTQVTVSS”, the “polyreactivity (PSR sort gate)” value is reported as “high polyreactivity”.
For “QEQLQESGGGLVQAGGSLRMSCAASGTIFSEANKGWYRQAPGKERELVATIGQGSTTNYADSVKGRFTISRDNAKNTVYLQMNSLKPEETAVYYCAVVTVDPVGFVYWGQGTQVTVSS”, the “polyreactivity (PSR sort gate)” value was “low polyreactivity”.
In the case of “QEQLQESGGGQVQAGGSLLLSCAASGNIIRYYYMGWYRQAPGKERELVAAINVGAITYYADSVKGRFSISRDNAKNTVYLPMNSLTPEDTAVYYCAVDQYSEAYYDYWGQGTQATVSS”, the “polyreactivity (PSR sort gate)” value is reported as “high polyreactivity”.
In the case of “QEQLQESVVCQVQAGRSLHLSCAASGNIIRYSYMGWYRQAPGNERELVAAITYGTSTNYADSVKGRFTISRDHAKNTVYLQMTSLKPEDTAVYYCAVDVNYGDPLDNWCQGTQVTVSS”, the “polyreactivity (PSR sort gate)” value is reported as “high polyreactivity”.
For “QEQLVESGGGIVQAGGTLRLSGADSGSIFVKNAMGWYRQAHGKERQWVARITYSGGSTYYADSVKGRFTISRDNAKNTVYLQMNSLKPEDTAVYYCAARYWYFPQPYYPGNDYWGQGTQVTVSS”, the “polyreactivity (PSR sort gate)” value was “high polyreactivity”.
For “QEQLVESGGGLVQAGGSLRLSCAASGSIRYYAMGWDRQAPGKESELVATITRGGSTYYADSVKGRFTISRDNAKNTVYLQMNSLKPEDTAVYYCAARRAVRVGYYWHDISSYDYWGQGTQVTVSS”, the “polyreactivity (PSR sort gate)” value was “low polyreactivity”.
For “QEQLVESGGGLVQAGGTLRLSCDASVSTQWYNAMGWYRQAPGKERELVATITAGGGSTYYADSVKGRFTISRDNAKNTVYLQMNSLKREDTAVYYCATRYTPAQLDYWGQGTQVTVSS”, the “polyreactivity (PSR sort gate)” value was “low polyreactivity”.
In the case of “QEQLVETVVGLVQARGSLRLRSAASGITFRKYAMRWYRQAPGKERDFVAAITRGGRTYYADSVKGRFTISRENAKNTVYLQMNSLKPEDTAVYYCAACTVVYAGSTYLQPFDYWGQGTQVTVSS”, the “polyreactivity (PSR sort gate)” value is reported as “high polyreactivity”.
With “QFHLVESCGGLVQAGGSLRLSCAASGIIFSTYFMGWYIQAPGKERELVAAISSRGFSTYYADSVKGRFTISRDNAKKTVYLQMNSLIPEDTAVYYCAARYYYSRSRLYYYWGQGTQVTVSS” the “polyreactivity (PSR sort gate)” value was “high polyreactivity”.
For “QFQLEESGGGLVQAGGSLRLSCAASGNIFFTNAMGRYRQAPGNERELVATITFRGTSTYYADSVKGRFTISRDNAKNTVYLQMNCLKPEDTAVYYCTARYSVFHRARVNLLGWGLYYWGQGTQVTVSS”, the “polyreactivity (PSR sort gate)” value was “low polyreactivity”.
In the case of “QFQLEESGGGLVQAGGSLRLSCAASGRIFPTYTRGWYSQAPGKERVLVAGISYSGTSTSYADSVKGRFTMSRDNAKNSVYLELNSLKPEDTAVYYCAAKYYGRSFYYGYDYWGQGTQVTVSS”, the “polyreactivity (PSR sort gate)” value is reported as “low polyreactivity”.
For “QFQLEESGRGLVQAGGSLRLSCAASGSTLSYNAMGCYRQAPGKERELVAAISGRGGSTSYADSVKGRFTITRDNAKKTVYLQMNRLKPVDTAVYYCIAGKYSSSAALYDYWGQGTQVTVSS”, the “polyreactivity (PSR sort gate)” value was “high polyreactivity”.

From the nanobody polyreactivity screen of Harvey et al. (2022)
